Results taken from the Human Domainome abundance scans (Beltran et al. 2025).
± gives the uncertainty stated by the source.

B1: Tumor protein p73, residues 487 to 549; numbered along this chain, O15350 (parent)
chain: YHADPSLVSFLTGLGCPNCIEYFTSQGLQSIYHLQNLTIEDLGALKIPEQYRMTIWRGLQDLK

Variants of: B1
Assay: abundance fitness (aPCA) (normalised: wild type 0, dead -1); higher = more abundant; growth selection in yeast, the domain comes from the species named
Conditions: Homo sapiens

Row | Variant | abundance fitness
1 | YHADPSLVSFLTGLGCPNCIKYFTSQGLQSIYHLQNLTIEDLGALKIPEQYRMTIWRGLQDLK [E21K] | -0.048 ± 0.052
2 | YHADPSLVSFLTGLGCPNCINYFTSQGLQSIYHLQNLTIEDLGALKIPEQYRMTIWRGLQDLK [E21N] | -0.037 ± 0.098
3 | YHADPSLVSFLTGLGCPNCIPYFTSQGLQSIYHLQNLTIEDLGALKIPEQYRMTIWRGLQDLK [E21P] | -0.053 ± 0.049
4 | YHADPSLVSFLTGLGCPNCIRYFTSQGLQSIYHLQNLTIEDLGALKIPEQYRMTIWRGLQDLK [E21R] | -0.009 ± 0.03
5 | YHADPSLVSFLTGLGCPNCISYFTSQGLQSIYHLQNLTIEDLGALKIPEQYRMTIWRGLQDLK [E21S] | -0.003 ± 0.044
6 | YHADPSLVSFLTGLGCPNCITYFTSQGLQSIYHLQNLTIEDLGALKIPEQYRMTIWRGLQDLK [E21T] | -0.054 ± 0.063
7 | YHADPSLVSFLTGLGCPNCIVYFTSQGLQSIYHLQNLTIEDLGALKIPEQYRMTIWRGLQDLK [E21V] | -0.018 ± 0.031
8 | YHADPSLVSFLTGLGCPNCIWYFTSQGLQSIYHLQNLTIEDLGALKIPEQYRMTIWRGLQDLK [E21W] | -0.087 ± 0.063
9 | YHADPSLVSFLTGLGCPNCIYYFTSQGLQSIYHLQNLTIEDLGALKIPEQYRMTIWRGLQDLK [E21Y] | -0.042 ± 0.073
10 | YHADPSLVSFLTGLGCPNCIEAFTSQGLQSIYHLQNLTIEDLGALKIPEQYRMTIWRGLQDLK [Y22A] | -0.035 ± 0.036
11 | YHADPSLVSFLTGLGCPNCIEDFTSQGLQSIYHLQNLTIEDLGALKIPEQYRMTIWRGLQDLK [Y22D] | -0.101 ± 0.063
12 | YHADPSLVSFLTGLGCPNCIEEFTSQGLQSIYHLQNLTIEDLGALKIPEQYRMTIWRGLQDLK [Y22E] | -0.107 ± 0.046
13 | YHADPSLVSFLTGLGCPNCIEFFTSQGLQSIYHLQNLTIEDLGALKIPEQYRMTIWRGLQDLK [Y22F] | 0.002 ± 0.081
14 | YHADPSLVSFLTGLGCPNCIEGFTSQGLQSIYHLQNLTIEDLGALKIPEQYRMTIWRGLQDLK [Y22G] | -0.173 ± 0.034
15 | YHADPSLVSFLTGLGCPNCIEHFTSQGLQSIYHLQNLTIEDLGALKIPEQYRMTIWRGLQDLK [Y22H] | 0.031 ± 0.07
16 | YHADPSLVSFLTGLGCPNCIEIFTSQGLQSIYHLQNLTIEDLGALKIPEQYRMTIWRGLQDLK [Y22I] | -0.108 ± 0.12
17 | YHADPSLVSFLTGLGCPNCIEKFTSQGLQSIYHLQNLTIEDLGALKIPEQYRMTIWRGLQDLK [Y22K] | -0.047 ± 0.042
18 | YHADPSLVSFLTGLGCPNCIELFTSQGLQSIYHLQNLTIEDLGALKIPEQYRMTIWRGLQDLK [Y22L] | 0.009 ± 0.03
19 | YHADPSLVSFLTGLGCPNCIEMFTSQGLQSIYHLQNLTIEDLGALKIPEQYRMTIWRGLQDLK [Y22M] | -0.026 ± 0.055
20 | YHADPSLVSFLTGLGCPNCIENFTSQGLQSIYHLQNLTIEDLGALKIPEQYRMTIWRGLQDLK [Y22N] | 0.002 ± 0.12
21 | YHADPSLVSFLTGLGCPNCIEPFTSQGLQSIYHLQNLTIEDLGALKIPEQYRMTIWRGLQDLK [Y22P] | -0.069 ± 0.074
22 | YHADPSLVSFLTGLGCPNCIERFTSQGLQSIYHLQNLTIEDLGALKIPEQYRMTIWRGLQDLK [Y22R] | -0.042 ± 0.029

Row | Variant | abundance fitness
23 | YHADPSLVSFLTGLGCPNCIETFTSQGLQSIYHLQNLTIEDLGALKIPEQYRMTIWRGLQDLK [Y22T] | -0.04 ± 0.041
24 | YHADPSLVSFLTGLGCPNCIEVFTSQGLQSIYHLQNLTIEDLGALKIPEQYRMTIWRGLQDLK [Y22V] | -0.079 ± 0.038
25 | YHADPSLVSFLTGLGCPNCIEWFTSQGLQSIYHLQNLTIEDLGALKIPEQYRMTIWRGLQDLK [Y22W] | -0.261 ± 0.041
26 | YHADPSLVSFLTGLGCPNCIEYATSQGLQSIYHLQNLTIEDLGALKIPEQYRMTIWRGLQDLK [F23A] | -0.971 ± 0.14
27 | YHADPSLVSFLTGLGCPNCIEYCTSQGLQSIYHLQNLTIEDLGALKIPEQYRMTIWRGLQDLK [F23C] | -0.315 ± 0.053
28 | YHADPSLVSFLTGLGCPNCIEYDTSQGLQSIYHLQNLTIEDLGALKIPEQYRMTIWRGLQDLK [F23D] | -1.18 ± 0.19
29 | YHADPSLVSFLTGLGCPNCIEYETSQGLQSIYHLQNLTIEDLGALKIPEQYRMTIWRGLQDLK [F23E] | -1.05 ± 0.15
30 | YHADPSLVSFLTGLGCPNCIEYGTSQGLQSIYHLQNLTIEDLGALKIPEQYRMTIWRGLQDLK [F23G] | -0.995 ± 0.075
31 | YHADPSLVSFLTGLGCPNCIEYHTSQGLQSIYHLQNLTIEDLGALKIPEQYRMTIWRGLQDLK [F23H] | -0.81 ± 0.27
32 | YHADPSLVSFLTGLGCPNCIEYITSQGLQSIYHLQNLTIEDLGALKIPEQYRMTIWRGLQDLK [F23I] | -0.277 ± 0.14
33 | YHADPSLVSFLTGLGCPNCIEYKTSQGLQSIYHLQNLTIEDLGALKIPEQYRMTIWRGLQDLK [F23K] | -0.975 ± 0.15
34 | YHADPSLVSFLTGLGCPNCIEYLTSQGLQSIYHLQNLTIEDLGALKIPEQYRMTIWRGLQDLK [F23L] | -0.182 ± 0.037
35 | YHADPSLVSFLTGLGCPNCIEYMTSQGLQSIYHLQNLTIEDLGALKIPEQYRMTIWRGLQDLK [F23M] | -0.306 ± 0.057
36 | YHADPSLVSFLTGLGCPNCIEYNTSQGLQSIYHLQNLTIEDLGALKIPEQYRMTIWRGLQDLK [F23N] | -0.733 ± 0.15
37 | YHADPSLVSFLTGLGCPNCIEYPTSQGLQSIYHLQNLTIEDLGALKIPEQYRMTIWRGLQDLK [F23P] | -0.907 ± 0.16
38 | YHADPSLVSFLTGLGCPNCIEYQTSQGLQSIYHLQNLTIEDLGALKIPEQYRMTIWRGLQDLK [F23Q] | -0.801 ± 0.12
39 | YHADPSLVSFLTGLGCPNCIEYRTSQGLQSIYHLQNLTIEDLGALKIPEQYRMTIWRGLQDLK [F23R] | -1.14 ± 0.15
40 | YHADPSLVSFLTGLGCPNCIEYSTSQGLQSIYHLQNLTIEDLGALKIPEQYRMTIWRGLQDLK [F23S] | -1.03 ± 0.087
41 | YHADPSLVSFLTGLGCPNCIEYTTSQGLQSIYHLQNLTIEDLGALKIPEQYRMTIWRGLQDLK [F23T] | -0.978 ± 0.13
42 | YHADPSLVSFLTGLGCPNCIEYVTSQGLQSIYHLQNLTIEDLGALKIPEQYRMTIWRGLQDLK [F23V] | -0.618 ± 0.049
43 | YHADPSLVSFLTGLGCPNCIEYWTSQGLQSIYHLQNLTIEDLGALKIPEQYRMTIWRGLQDLK [F23W] | -0.966 ± 0.11
